Experimental data reported in the supplement of paper PMC10126150.
± gives the standard deviation of the averaged measurements.

Test system: ATP
Test: switch fluorescence ratio, 500 uM ATP over buffer (Cy3 cluster intensity, sum of 5 cycles each) (fold (ratio)); higher = stronger signal-on switching upon ATP binding; sequences stand for … in TCGTCGGCAGCGTCAGATGTGTATAAGAGACAGTTTTTTTTTTTTTTTTTTTTTTTTT…TC
Details: aptamer strand: ATP DNA aptamer (quencher-CACCTGGGGGAGTATTGCGGAGGAAGG + anchor), 100 nM annealed; ATP concentration: 500 uM
Method in brief: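 The quencher-labelled ATP aptamer, at 100 nM, was annealed to Cy3-labelled switching-strand clusters on a modified Illumina MiSeq flow-cell. The clusters were imaged in selection buffer, then after 15 min with 500 uM ATP at 22 °C, and this buffer/ATP cycle ran five times with NaOH stripping and re-annealing between runs. Per-cluster fluorescence ratios, summed target-cycle over summed buffer-cycle Cy3 intensity, were averaged per switch-domain sequence. Clusters outside 100-1000 RFU were excluded.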
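Further: ATP exposure 15 min at 22 °C before imaging.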

Sequence | switch fluorescence ratio
GTGATAAGAA | 1.009 ± 0.0057
ACTATATAAT | 1.08 ± 0.014
TATGTAGAGA | 0.99 ± 0.023
ACGCGGACAC | 1.22 ± 0.065
GATTGGTTCC | 1.05 ± 0.036
TTTCTAACGT | 1.001 ± 0.0026
ATAATTTGGT | 0.982 ± 0.038
AAGGTTACCG | 1.04 ± 0.021
AGACGCTTG | 0.9961 ± 0.0042
GGGCGGTGGG | 1 ± 0.068
AAAAGTGTTT | 0.99 ± 0.033
ATTCCTAGGG | 1.048 ± 0.0022
ACGCATTCAA | 1.236 ± 0.0039
CAAGCTAGCG | 1.04 ± 0.016
AGTTCGTTA | 0.9861 ± 0.0056
AGGCCTGAGC | 1 ± 0.025
TGAGTATAGT | 1.01 ± 0.035
ATGGCAGTGT | 0.993 ± 0.018
TTTGCTACTG | 1.052 ± 0.0096
GACGAAAAGG | 1.75 ± 1.1
GAGGCTGTGC | 1.052 ± 0.0057
ATGCACTGGA | 0.9969 ± 0.0075
TCATGGCACG | 1.02 ± 0.019
TTTTCGTTTT | 1.04 ± 0.082
GCGATATAGT | 1.03 ± 0.074

Sequence | switch fluorescence ratio
TCAATATGTT | 1.004 ± 0.0073
ACGGAGGGCT | 1.02 ± 0.015
TTTGCCCCCT | 1.04 ± 0.051
AGGTCAGTTT | 0.989 ± 0.017
GGGTTTTAGC | 1.03 ± 0.076
CGGTCAAGGT | 1.003 ± 0.0076
AACTGGTGTC | 1.006 ± 0.003
GTTAAATTAG | 0.9875 ± 0.0056
ATGGGCATGG | 1.04 ± 0.072
GGGTACAGGA | 0.99686 ± 5.1e-05
TTGGCATCCT | 1.0176 ± 0.00051
CTCCGTGGGA | 1.9 ± 0.68
AGCTGGCAGC | 1.009 ± 0.0012
TGAAGGGGGT | 0.999 ± 0.032
TGTGGTTGGT | 1.01 ± 0.032
GGCTATCTGT | 1 ± 0.047
TGGGGAGGGG | 0.991 ± 0.047
ATGGTAGTAT | 0.986 ± 0.016
TTCGTGGTGA | 1.02 ± 0.019
AGGTCGAGGG | 0.997 ± 0.026
TATTCGGGGT | 0.99 ± 0.028
CGGTACTGAT | 1.0316 ± 0.00064
GGGGTACGGG | 1.05 ± 0.024
CTAATGTTGT | 1.02 ± 0.028
CACGGGCGGG | 1.05 ± 0.063

Sequence | switch fluorescence ratio
CAGAACGGCA | 1.095 ± 0.0092
GTTAGTTAAA | 0.968 ± 0.02
ACAAGGGTTC | 1 ± 0.015
GAGCTGTAAC | 1.02 ± 0.053
GATGTCTGTT | 0.955 ± 0.021
CGTCGCTGGG | 1.0111 ± 0.00071
AGTTGGTTAC | 1.01 ± 0.023
TGGGTTTTTA | 0.9442 ± 0.0014
GCGTGATGCC | 1.03 ± 0.075
AGGGGGTCTT | 1.01 ± 0.016
TACCAGCGCT | 0.993 ± 0.058
GTTATTCTCT | 0.971 ± 0.015
TCGGGGCTGT | 0.993 ± 0.026
TAAAATACGT | 0.995 ± 0.042
TAGTAGTTTT | 1.01 ± 0.052
CCATGAGCAG | 2.06 ± 0.11
TTTTCATGTG | 0.995 ± 0.027
TGGTAAATCT | 1 ± 0.036
TGATGAGGGT | 1.02 ± 0.02
AAATGAATGG | 1.0177 ± 0.00097
GCTGTCTGGT | 1.0181 ± 0.00043
GAGTAGTATA | 0.992 ± 0.049
GGGATGACGA | 0.98 ± 0.042
ATCCGAGGAG | 1.05 ± 0.012
CTGGGAGATG | 0.99088 ± 0.00019

Sequence | switch fluorescence ratio
GTTGGTTGTG | 0.981 ± 0.0053
TTCGTTATTG | 1.02 ± 0.026
CGGATTTATC | 1.01 ± 0.033
TTCGGGTTTA | 0.994 ± 0.055
TTAATTGGTG | 1.021 ± 0.009
GGCGCTTATA | 1 ± 0.042
GAACACTTCT | 1.05 ± 0.014
GAAGTTTGTA | 0.992 ± 0.022
TGGGGCTTAT | 0.987 ± 0.026
TTATTGATTT | 1.017 ± 0.0021
CGGACGGGTT | 0.985 ± 0.019
TTTAGATATT | 0.98873 ± 0.00041
ATATTGGAAT | 1.02 ± 0.024
CCTTATGGCG | 0.996 ± 0.076
GCCTTGATCT | 0.996 ± 0.016
GAGTTATGGA | 1.03 ± 0.019
GGATATGATC | 1.03 ± 0.031
ATATCGGTGT | 0.991 ± 0.029
ACATGATAGT | 1.01 ± 0.043
AATATCATAC | 1.05 ± 0.021
TCATTTTAGT | 0.99 ± 0.026
AATAGAATTT | 0.997 ± 0.035
TATGGGGTTA | 0.981 ± 0.028
AGGGTGTTAG | 1 ± 0.013
GGGGATTACG | 0.984 ± 0.026

Sequence | switch fluorescence ratio
TAAGCAGAGG | 1.17 ± 0.13
ATAAGTTAAA | 1.07 ± 0.12
CGATAATTTA | 1 ± 0.053
AAGTCCGGGG | 0.9698 ± 0.0013
CACGCGGAGG | 1.03 ± 0.039
TCGGGAATCG | 0.983 ± 0.027
CAGACTGGGG | 1 ± 0.039
CGTAGTAACT | 1.11 ± 0.022
CGCTATTCGG | 1.04 ± 0.043
TCAAGGGTGA | 1.03 ± 0.022
TTCGTTGGTG | 0.969 ± 0.035
GCTTTTTTAC | 1.38 ± 0.32
ATGTTCTCCG | 1.14 ± 0.035
TACGGGGGAG | 0.995 ± 0.02
GAAGTCCAGA | 1.01 ± 0.07
AGGCAGGTAC | 1.246 ± 0.0051
CGGGGAACTC | 1.06 ± 0.056
GCGTATTATT | 1.001 ± 0.0043
AGCTAGCAG | 1.042 ± 0.0036
TAGCTGTTTT | 1.02 ± 0.02
GGGCTTGGGG | 0.999 ± 0.031
GGGCAGATGG | 0.988 ± 0.034
TTGGGGTAGC | 1.01 ± 0.036
AAGAGGTTGC | 0.99 ± 0.044
TGAGCTAGGT | 1 ± 0.033

Sequence | switch fluorescence ratio
AACGGTCTTT | 0.997 ± 0.014
AATGGGAAGT | 0.991 ± 0.019
ATGTCCAAGG | 1.005 ± 0.0071
TAGGATTAAT | 0.999 ± 0.012
TTGGGTTCTT | 0.9937 ± 0.0066
TGCCGAGGCC | 0.977 ± 0.0077
GGTATCAGGG | 0.999 ± 0.022
AGTTAATGCT | 0.9856 ± 0.0026
TTCGAACACG | 0.994 ± 0.028
TCACGGAAGT | 1.022 ± 0.0036
CGTCTGGGGG | 1.01 ± 0.021
AATCGGTTGT | 0.9815 ± 0.005
CGATGGGGGA | 1.02 ± 0.018
AAATTTATAT | 1.02 ± 0.015
AATATTGTT | 0.996 ± 0.01
TGTGGGGGCA | 0.9953 ± 0.0057
AGGCTTTCTC | 1.14 ± 0.11
GACGTTATGG | 1.04 ± 0.016
GATGTTTTGA | 1 ± 0.018
ATTTGCTTTA | 1.02 ± 0.012
AGAGTGATGC | 1 ± 0.087
GTTGATAAGG | 1.01 ± 0.045
CGGTGTTTTC | 0.972 ± 0.046
TTACGGTGTT | 1.1 ± 0.099
AAGGTAGTGG | 0.962 ± 0.017

Sequence | switch fluorescence ratio
GAAGAGTCGT | 0.992 ± 0.064
TTTTAGAGTA | 1.003 ± 0.009
AGGGCGTTGT | 0.969 ± 0.035
ATGGGGGTGT | 1.004 ± 0.0059
TTAGAAAGGA | 1.01 ± 0.025
AAGTTCGTAA | 1.03 ± 0.0079
CGATTAGTCT | 0.9951 ± 0.0021
AAAAAGCTCG | 0.985 ± 0.064
TTAGTAAAGA | 1.02 ± 0.013
TATGGACGTT | 1.03 ± 0.053
TCCCCTTTTT | 1.04 ± 0.015
GGGGGTTTAT | 1.01 ± 0.017
TAGGGCGGGT | 0.972 ± 0.039
TTTTTACGGC | 1.02 ± 0.016
GCAGGGGGTC | 1 ± 0.021
TCATACTTTT | 1.01 ± 0.026
GGTTTTTCTG | 0.992 ± 0.061
TTAATCGGTT | 1.005 ± 0.01
TTTCAAAAGA | 1 ± 0.048
CAGCTCGGTC | 0.9687 ± 0.0082
AAGTGGAGTG | 0.999 ± 0.041
TTACGCATCA | 1.14 ± 0.021
TTGTACGCCC | 1.24 ± 0.2
ATGATTTCTA | 0.986 ± 0.024
TTGAGAGGAT | 0.972 ± 0.021

Sequence | switch fluorescence ratio
CTGGGTTTGT | 0.981 ± 0.016
GTGACCAGAA | 0.983 ± 0.025
CGGGAGCCCA | 1.02 ± 0.044
ACTTTGTCAT | 0.981 ± 0.017
GGCATATTGT | 0.985 ± 0.025
CGCGATTTTA | 1.04 ± 0.019
CGTGTTTTTC | 0.996 ± 0.026
ATTAAAAAAC | 1.01 ± 0.016
TTTAAGGTTG | 0.986 ± 0.023
GTGTACTTAC | 1.2 ± 0.022
TTTTTCCTTG | 1.04 ± 0.018
GTTGGATCCG | 0.984 ± 0.017
CGGCTGCGGG | 0.978 ± 0.022
AATTAGAATG | 0.974 ± 0.029
AATGAGGGGA | 1 ± 0.013
GCCCAGTCAT | 0.997 ± 0.023
GAAATGTGTT | 1 ± 0.056
CGGTAGGTGG | 1.01 ± 0.057
CTTTATGCGG | 0.99361 ± 0.00077
GGGATTCAG | 1.0226 ± 0.0002
TTCCGGGATC | 1.91 ± 0.092
TCATGGGGCG | 0.993 ± 0.012
TGCCGAAAGT | 0.962 ± 0.033
ATGAAAAGGT | 0.976 ± 0.013
CGTTCAAGTT | 1 ± 0.024
